According to US20250049972A1, “METHOD OF DETECTING PROSTATE CANCER IN A HUMAN SUBJECT USING A Cu 64 PSMA I&T INJECTION” (Curium US LLC, priority 2023, published 2025):

Tests used:
[1] = design: species or system human; conditions: in vivo
Description: Safety was assessed in all patients following administration of copper Cu-64 PSMA I&T injection through collection of AE reporting, laboratory assessments, vital signs, and ECG. The Phase 2 portion assessed safety after copper Cu-64 PSMA I&T injection through collection of AEs 24 hours post-injection, lab assessments, vital signs, and ECGs.

clinical = conditions: human, in vivo, total radioactivity
Description: (§1) Radiation dosimetry estimates for normal organs were determined for copper Cu-64 PSMA I&T based on biodistribution collected from the 12 patients enrolled in the trial. Whole-body PET/CT images acquired at 1 hour (±15 minutes), 4 hours (±30 minutes), and 24 hours (±2.0 hours) post injection were used together with blood samples collected prior to and 1, 2, 4, and 24 hours post injection and total voided urine samples collected for 0 to 1-hour and 1 to 4-hour intervals post injection.
Percent injected activity as a function of time was determined for the quantified organs listed below.
First, calculating Activity Quantification in PET Images utilizing the following Equation One: […]
Use of this equation can calculate organ/tissue and whole body activity concentration levels.
Second, Normalization of PET Quantification utilizing a normalization factor to decay values using urine activity utilizing the following Equation Two:
A normalization factor can be determined and applied to the decay corrected % IA values by assuming 100% quantification of the total body activity at the first time point and assuming accurate urine activity assay according to Equation Two.

[2] = design: species or system human; conditions: in vivo; remark: listed apart in the source
Description: as §1
This analysis was performed with the objective of estimation of radiation dosimetry of Cu-64 PSMA I&T based on bio-distribution determined using PET image data collected in twelve human subjects. […] The maximum deviation was 13%. Activities were normalized to 100% based on the first imaging time to prevent over or under estimation of absorbed dose.
Third, calculating Source Organ Time-Activity Bio-Kinetic Modeling using bio-distribution data for the listed organs utilizing the following Equation Three: […]
The bio-distribution data for the listed organs and remainder tissues in the study may be determined using the image quantification methodology described above. Organ and tissue data may be decay corrected to fit in a least squares sense using non-linear regression with sums of exponentials of the form shown in Equation Three.

[3] = Mean % Injected Dose, GI Total Contents
[4] = Mean % Injected Dose, Heart wall
[5] = Mean % Injected Dose, Lacrimal Glands
[6] = Mean % Injected Dose, Pituitary
[7] = Mean % Injected Dose, Red Marrow
[8] = Mean % Injected Dose, Salivary glands
[9] = Mean % Injected Dose, Stomach Wall
[10] = Mean % Injected Dose, Whole Body

O=C(O)CC[C@H](NC(=O)N[C@@H](CCCCNC(=O)CCCCCCC(=O)NCCCC[C@@H](NC(=O)[C@@H](Cc1ccccc1)NC(=O)[C@@H](Cc1ccc(O)c(I)c1)NC(=O)CC[C@H](C(=O)O)N1CCN(CC(=O)O)CCN(CC(=O)O)CCN(CC(=O)O)CC1)C(=O)O)C(=O)O)C(=O)O [Cu-64 PSMA I&T, 64 Cu-(3S, 7S, 26R, 29R, 32R, 37R)-29-benzyl-32(4-hydroxy-3-iodobenzyl)-5, 13, 20, 28, 31, 34-hexaoxo-37-(4,7,10-tris(carboxymethyl)-1,4,7, 10-tetraazacyclododecan-1-yl)-4,6, 12, 21, 27, 30, 33-heptaazaheptatriacontane-1,3,7, 26, 37-pentacarboxylic acid, metal not drawn]
patients who experienced at least 1 AE [1]: 2 | relationship of the adverse events to study product [1]: not related | serious adverse events attributed to the injection [1]: No serious adverse events | seriousness of the adverse events [1]: not serious | severity of the adverse events [1]: mild | tissue uptake dose at 1 h (clinical; Mean % Injected Dose, Blood): 5.8 %ID | tissue uptake dose at 2 h (clinical; Mean % Injected Dose, Blood): 4.2 %ID | tissue uptake dose at 4 h (clinical; Mean % Injected Dose, Blood): 3.2 %ID | tissue uptake dose at 24 h (clinical; Mean % Injected Dose, Blood): 4.4 %ID | tissue uptake dose at 1 h (clinical; [3]): 10 %ID | tissue uptake dose at 4 h (clinical; [3]): 10 %ID | tissue uptake dose at 24 h (clinical; [3]): 12 %ID | tissue uptake dose at 1 h (clinical; [4]): 1.2 %ID | tissue uptake dose at 4 h (clinical; [4]): 0.84 %ID | tissue uptake dose at 24 h (clinical; [4]): 0.96 %ID | tissue uptake dose at 1 h (clinical; Mean % Injected Dose, Kidneys): 8.6 %ID | tissue uptake dose at 4 h (clinical; Mean % Injected Dose, Kidneys): 5 %ID | tissue uptake dose at 24 h (clinical; Mean % Injected Dose, Kidneys): 2.1 %ID | tissue uptake dose at 1 h (clinical; [5]): 0.023 %ID | tissue uptake dose at 4 h (clinical; [5]): 0.024 %ID | tissue uptake dose at 24 h (clinical; [5]): 0.015 %ID | tissue uptake dose at 1 h (clinical; Mean % Injected Dose, Liver): 19 %ID | tissue uptake dose at 4 h (clinical; Mean % Injected Dose, Liver): 25 %ID | tissue uptake dose at 24 h (clinical; Mean % Injected Dose, Liver): 30 %ID | tissue uptake dose at 1 h (clinical; Mean % Injected Dose, Pancreas): 0.35 %ID | tissue uptake dose at 4 h (clinical; Mean % Injected Dose, Pancreas): 0.39 %ID | tissue uptake dose at 24 h (clinical; Mean % Injected Dose, Pancreas): 0.28 %ID | tissue uptake dose at 1 h (clinical; [6]): 0.0021 %ID | tissue uptake dose at 4 h (clinical; [6]): 0.0019 %ID | tissue uptake dose at 24 h (clinical; [6]): 0.0017 %ID | tissue uptake dose at 1 h (clinical; Mean % Injected Dose, Prostate): 0.036 %ID | tissue uptake dose at 4 h (clinical; Mean % Injected Dose, Prostate): 0.031 %ID | tissue uptake dose at 24 h (clinical; Mean % Injected Dose, Prostate): 0.021 %ID | tissue uptake dose at 1 h (clinical; [7]): 1.7 %ID | tissue uptake dose at 4 h (clinical; [7]): 1.4 %ID | tissue uptake dose at 24 h (clinical; [7]): 1.5 %ID | tissue uptake dose at 24 h (clinical; Mean % Injected Dose, Remainder): 52 %ID | tissue uptake dose at 1 h (clinical; [8]): 1.1 %ID | tissue uptake dose at 4 h (clinical; [8]): 0.95 %ID | tissue uptake dose at 24 h (clinical; [8]): 0.4 %ID | tissue uptake dose at 1 h (clinical; Mean % Injected Dose, Spleen): 1.5 %ID | tissue uptake dose at 4 h (clinical; Mean % Injected Dose, Spleen): 0.54 %ID | tissue uptake dose at 24 h (clinical; Mean % Injected Dose, Spleen): 0.29 %ID | tissue uptake dose at 1 h (clinical; [9]): 0.52 %ID | tissue uptake dose at 4 h (clinical; [9]): 0.51 %ID | tissue uptake dose at 24 h (clinical; [9]): 0.42 %ID | tissue uptake dose at 1 h (clinical; Mean % Injected Dose, Testes): 0.11 %ID | tissue uptake dose at 4 h (clinical; Mean % Injected Dose, Testes): 0.1 %ID | tissue uptake dose at 24 h (clinical; Mean % Injected Dose, Testes): 0.065 %ID | tissue uptake dose at 1 h (clinical; Mean % Injected Dose, Thyroid): 0.031 %ID | tissue uptake dose at 4 h (clinical; Mean % Injected Dose, Thyroid): 0.019 %ID | tissue uptake dose at 24 h (clinical; Mean % Injected Dose, Thyroid): 0.016 %ID | tissue uptake dose at 1 h (clinical; [10]): 96 %ID | tissue uptake dose at 4 h (clinical; [10]): 87 %ID | tissue uptake dose at 24 h (clinical; [10]): 81 %ID | total activity recovery (whole-body PET plus urine), % of injected activity at 1 hour (clinical; sum of unnormalized activity recovery from whole body PET quantification and urinary excretion, % of the injected activity): 101% | Normalized Number of Disintegrations, Mean, Remainder ([2]; human): 6.9 h | Dose Estimate, Mean, Adrenals [2]: 0.045 mGy/MBq | Dose Estimate, Mean, Brain [2]: 0.011 mGy/MBq | Dose Estimate, Mean, Esophagus [2]: 0.020 mGy/MBq | Dose Estimate, Mean, Eyes [2]: 0.010 mGy/MBq | Dose Estimate, Mean, Gallbladder Wall [2]: 0.051 mGy/MBq | Dose Estimate, Mean, Heart Wall [2]: 0.055 mGy/MBq | Dose Estimate, Mean, Kidneys [2]: 0.19 mGy/MBq | Dose Estimate, Mean, Lacrimal Glands [2]: 0.16 mGy/MBq | Dose Estimate, Mean, Left colon [2]: 0.25 mGy/MBq | Dose Estimate, Mean, Liver [2]: 0.25 mGy/MBq | Dose Estimate, Mean, Lungs [2]: 0.018 mGy/MBq | Dose Estimate, Mean, Osteogenic Cells [2]: 0.018 mGy/MBq | Dose Estimate, Mean, Pancreas [2]: 0.054 mGy/MBq | Dose Estimate, Mean, Pituitary [2]: 0.037 mGy/MBq | Dose Estimate, Mean, Prostate [2]: 0.027 mGy/MBq | Dose Estimate, Mean, Rectum [2]: 0.15 mGy/MBq | Dose Estimate, Mean, Red Marrow [2]: 0.023 mGy/MBq | Dose Estimate, Mean, Right colon [2]: 0.22 mGy/MBq | Dose Estimate, Mean, Salivary Glands [2]: 0.12 mGy/MBq | Dose Estimate, Mean, Small Intestine [2]: 0.067 mGy/MBq | Dose Estimate, Mean, Spleen [2]: 0.048 mGy/MBq | Dose Estimate, Mean, Stomach Wall [2]: 0.063 mGy/MBq | Dose Estimate, Mean, Testes [2]: 0.035 mGy/MBq | Dose Estimate, Mean, Thymus [2]: 0.015 mGy/MBq | Dose Estimate, Mean, Thyroid [2]: 0.015 mGy/MBq | Dose Estimate, Mean, Total Body [2]: 0.022 mGy/MBq | Dose Estimate, Mean, Urinary Bladder Wall [2]: 0.074 mGy/MBq | Normalized Number of Disintegrations, Mean, Heart wall [2]: 0.17 h | Normalized Number of Disintegrations, Mean, Kidneys [2]: 0.69 h | Normalized Number of Disintegrations, Mean, Lacrimal Glands [2]: 0.0033 h | Normalized Number of Disintegrations, Mean, Liver [2]: 5.0 h | Normalized Number of Disintegrations, Mean, Pancreas [2]: 0.058 h | Normalized Number of Disintegrations, Mean, Pituitary [2]: 0.00033 h | Normalized Number of Disintegrations, Mean, Prostate [2]: 0.0047 h | Normalized Number of Disintegrations, Mean, Red Marrow [2]: 0.28 h | Normalized Number of Disintegrations, Mean, Salivary glands [2]: 0.12 h | Normalized Number of Disintegrations, Mean, Spleen [2]: 0.096 h | Normalized Number of Disintegrations, Mean, Stomach Wall [2]: 0.083 h | Normalized Number of Disintegrations, Mean, Testes [2]: 0.015 h | Normalized Number of Disintegrations, Mean, Thyroid [2]: 0.0035 h | Normalized Number of Disintegrations, Mean, Whole Body [2]: 15 h
